Target: T1, ARID4B TD121 E50L (Homo sapiens, UniProt Q4LE39 1-121, E50L)
T1 sequence: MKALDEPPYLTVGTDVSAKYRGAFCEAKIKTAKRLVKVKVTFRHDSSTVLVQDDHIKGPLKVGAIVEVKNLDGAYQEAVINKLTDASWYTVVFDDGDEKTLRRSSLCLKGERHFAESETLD
Experiment: EMSA; stronger than wild-type ARID4B TD121; 50 mM Tris-HCl pH 7.6, 50 mM NaCl (buffer A); ITC 25 C; EMSA 4 C, 12 uM DNA, 8% native gel in TBE; NMR titration by 1H-15N HSQC (temperature not stated for titration; buffer A also defined elsewhere as 20 mM phosphate, 100 mM NaCl, pH 7.0)
Details: protein: recombinant; 5' overhang 1 nt on each strand (17 bp paired)

B1: dsDNA1 (dsDNA)
DNA 1: CTCAGGTCAAAGGTCACG
DNA 2: TCGTGACCTTTGACCTGA
B1: binds.

From PMC8038949, “Structural basis for the DNA-binding activity of human ARID4B Tudor domain”
